Patent US7052705 (dated 2006)
Bridge positions count the residues as written; N and C are the ends. Ends that are not written are not given here.

T1: VEGFR-2 (human, UniProt P35968)
T1 chain: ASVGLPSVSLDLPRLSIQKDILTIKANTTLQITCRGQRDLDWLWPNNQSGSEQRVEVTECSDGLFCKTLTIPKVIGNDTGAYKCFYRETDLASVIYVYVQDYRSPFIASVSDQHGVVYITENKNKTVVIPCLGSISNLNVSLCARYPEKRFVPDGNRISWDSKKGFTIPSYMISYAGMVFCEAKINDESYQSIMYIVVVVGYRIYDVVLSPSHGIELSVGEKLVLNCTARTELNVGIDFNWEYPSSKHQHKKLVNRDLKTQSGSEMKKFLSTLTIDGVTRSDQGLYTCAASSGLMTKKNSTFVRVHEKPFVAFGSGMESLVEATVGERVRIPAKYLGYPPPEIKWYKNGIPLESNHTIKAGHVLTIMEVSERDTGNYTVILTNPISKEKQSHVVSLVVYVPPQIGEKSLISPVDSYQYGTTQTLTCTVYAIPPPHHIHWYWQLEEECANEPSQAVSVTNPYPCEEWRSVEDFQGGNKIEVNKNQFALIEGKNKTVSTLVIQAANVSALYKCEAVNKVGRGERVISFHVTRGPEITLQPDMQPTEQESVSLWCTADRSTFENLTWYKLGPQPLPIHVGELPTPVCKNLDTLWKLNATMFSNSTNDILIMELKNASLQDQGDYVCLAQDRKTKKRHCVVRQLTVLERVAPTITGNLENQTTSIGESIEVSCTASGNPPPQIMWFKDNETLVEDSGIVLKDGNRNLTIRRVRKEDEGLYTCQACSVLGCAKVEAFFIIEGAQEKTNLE


Assays:
VEGFR-2 [1] = target: T1, VEGFR-2; test: competition, COS-1
Neuropilin-1 (NP-1) [2] = target: T2, Neuropilin-1 (NP-1) (human, UniProt O14786); test: competition, COS-1
T2 sequence (O14786 22-923): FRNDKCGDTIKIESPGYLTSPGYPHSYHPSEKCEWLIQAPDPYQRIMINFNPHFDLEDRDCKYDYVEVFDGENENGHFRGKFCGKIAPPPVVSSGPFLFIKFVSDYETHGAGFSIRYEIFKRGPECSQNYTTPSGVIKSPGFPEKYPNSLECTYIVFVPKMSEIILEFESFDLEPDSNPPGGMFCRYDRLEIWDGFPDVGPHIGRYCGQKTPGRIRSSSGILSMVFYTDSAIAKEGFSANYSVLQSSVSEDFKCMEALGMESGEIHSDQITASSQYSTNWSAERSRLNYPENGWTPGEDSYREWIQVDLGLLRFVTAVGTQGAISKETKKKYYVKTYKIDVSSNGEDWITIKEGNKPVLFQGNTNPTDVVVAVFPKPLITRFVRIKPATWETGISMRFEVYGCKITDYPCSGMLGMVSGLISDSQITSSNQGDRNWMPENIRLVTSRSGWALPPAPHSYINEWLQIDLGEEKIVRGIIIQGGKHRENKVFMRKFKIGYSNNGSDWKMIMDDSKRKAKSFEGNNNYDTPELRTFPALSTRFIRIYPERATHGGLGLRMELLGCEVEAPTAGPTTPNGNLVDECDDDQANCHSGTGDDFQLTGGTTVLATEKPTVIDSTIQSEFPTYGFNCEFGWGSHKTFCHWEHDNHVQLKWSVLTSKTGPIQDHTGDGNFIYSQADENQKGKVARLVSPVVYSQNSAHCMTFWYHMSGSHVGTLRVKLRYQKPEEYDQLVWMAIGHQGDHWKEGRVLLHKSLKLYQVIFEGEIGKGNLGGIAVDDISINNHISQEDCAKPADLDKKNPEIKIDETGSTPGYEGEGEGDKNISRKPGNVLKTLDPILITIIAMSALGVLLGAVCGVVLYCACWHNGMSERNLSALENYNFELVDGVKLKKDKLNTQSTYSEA

Neuropilin-1 (NP-1) [3] = target: T2, Neuropilin-1 (NP-1); test: competition, Balb/c
Neuropilin-1 (NP-1) [4] = target: T2, Neuropilin-1 (NP-1); test: other, radioligand saturation COS-1
Neuropilin-1 (NP-1) [5] = target: T2, Neuropilin-1 (NP-1); test: competition, COS-1; remark: listed apart in the source
[6] = target: T3, VEGFR-2/NP-1 co-expressed (human, UniProt P35968); test: competition, COS-1
[7] = target: T3, VEGFR-2/NP-1 co-expressed; test: competition, 125I-VEGF165
[8] = target: T3, VEGFR-2/NP-1 co-expressed; test: competition, Balb/c
Target sequence in this assay (chain, as listed by the source, chain 2 of 2, one chain of several): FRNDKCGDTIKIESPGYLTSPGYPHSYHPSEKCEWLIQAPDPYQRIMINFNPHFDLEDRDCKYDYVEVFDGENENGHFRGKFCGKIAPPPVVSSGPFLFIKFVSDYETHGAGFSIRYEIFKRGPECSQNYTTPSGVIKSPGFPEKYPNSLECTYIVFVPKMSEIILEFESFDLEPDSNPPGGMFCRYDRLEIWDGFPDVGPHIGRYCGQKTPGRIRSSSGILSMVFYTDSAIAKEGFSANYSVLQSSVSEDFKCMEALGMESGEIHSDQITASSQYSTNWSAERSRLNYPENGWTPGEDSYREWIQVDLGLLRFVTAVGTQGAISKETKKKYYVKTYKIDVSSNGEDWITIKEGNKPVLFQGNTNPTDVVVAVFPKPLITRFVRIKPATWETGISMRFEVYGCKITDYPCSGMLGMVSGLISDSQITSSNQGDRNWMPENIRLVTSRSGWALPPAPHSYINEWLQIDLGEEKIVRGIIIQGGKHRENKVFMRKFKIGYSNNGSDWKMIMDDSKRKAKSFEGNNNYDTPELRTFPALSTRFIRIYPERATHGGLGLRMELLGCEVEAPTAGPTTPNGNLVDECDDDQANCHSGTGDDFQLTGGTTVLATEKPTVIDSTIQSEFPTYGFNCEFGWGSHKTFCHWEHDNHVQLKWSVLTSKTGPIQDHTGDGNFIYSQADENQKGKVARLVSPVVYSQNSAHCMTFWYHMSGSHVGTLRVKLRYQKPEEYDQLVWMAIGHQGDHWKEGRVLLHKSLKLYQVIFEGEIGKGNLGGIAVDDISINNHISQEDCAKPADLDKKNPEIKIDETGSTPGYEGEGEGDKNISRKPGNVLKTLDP

VEGFR-2 [9] = target: T1, VEGFR-2; test: competition, COS-1 cells, 4C

Row | Binder | binding result (VEGFR-2 [1]) | also measured
1 | KGRGKRRRECQRPSCKPRR (disulfide 10-15) [P6V8-3NCSC13C18] | no binding | –
2 | CKGRGKRCREKQRPSDKPRR (disulfide 1-8; also: capped amino and carboxyl termini, chemistry of caps not given here) [(cap)P6V8-3NCS1-7CC] | no binding | –
3 | RPSDKPRR [V8CS] | no binding | –
4 | AGRGARAAEKQAPSDKPRR [P6V8-3NCSA1,5,7,8,12] | no binding | –
5 | AGRGARRREKQRPSDKPRR [P6V8-3NCSA1A5] | no binding | –
6 | CAGRGKRCREKQRPSDKPRR (disulfide 1-8) [P6V8-3NCS1-7CCA1] | no binding | –
7 | RREKQRPCDKPRR [P6V8-9N] | no binding | –
8 | VEGF165 (protein) APMAEGGGQNHHEVVKFMDVYQRSYCHPIETLVDIFQEYPDEIEYIFKPSCVPLMRCGGCCNDEGLECVPTEESNITMQIMRIKPHQGQHIGEMSFLQHNKCECRPKKDRARQENPCGPCSERRKHLFVQDPQTCKCSCKNTDSRCKARQLELNERTCRCDKPRR | – | IC50 (Neuropilin-1 (NP-1) [2]): 0.582 nM; IC50 (Neuropilin-1 (NP-1) [3]): 0.158 nM; Kd (Neuropilin-1 (NP-1) [4]): 2.09 nM
9 | KGAGARRREKQRPSDKPRR [P6V8-3NCSA3A5] | no binding | –
10 | PKRSRRKGQPRPRGRREKRDRK [RAND1] | no binding | –
11 | RPCDKPRR [V8] | no binding | binding result (Neuropilin-1 (NP-1) [5]): no binding
12 | RRPKGRGKRRREKQRAAAKPRR [AS-4A] | no binding | –
13 | CKGRGARCREKQRPSDKPRR (disulfide 1-8) [P6V8-3NCS1-7CCA5] | no binding | –
14 | RRPKGRGKRAAAKQRPSDKPRR [AS-3] | – | binding result [6]: no binding
15 | RRPKGRGKRRREKQRPDAVPRR [P6P7] | – | IC50 [7]: 1.17 µM
16 | RRPKGRGKRRREKQRP [P6] | – | IC50 [7]: 12.2 µM
17 | RRPKGRGKRRREAAAPSDKPRR [AS-4] | no binding | IC50 [8]: 300 nM; IC50 (Neuropilin-1 (NP-1) [3]): 17.8 nM
18 | KGRGKRRREKQRPSDKPRR (also: (cap), group not given here) [(cap)P6V8-3NCS] | no binding | –
19 | KGRGKRAAEAQAPSDKPRR [P6V8-3NCSA7,8,10,12] | no binding | –
20 | AGRGKARREKQRPSDKPRR [P6V8-3NCSA1A6] | no binding | –
21 | RRPAAAGKRRREKQRPSDKPRR [AS-1] | no binding | –
22 | KGRGKRRREKQRPCDKPRR [P6V8-3N] | – | IC50 (Neuropilin-1 (NP-1) [3]): 254 nM
23 | KGAGKARREKQRPSDKPRR [P6V8-3NCSA3A6] | no binding | –
24 | VEGF121 (protein) APMAEGGGQNHHEVVKFMDVYQRSYCHPIETLVDIFQEYPDEIEYIFKPSCVPLMRCGGCCNDEGLECVPTEESNITMQIMRIKPHQGQHIGEMSFLQHNKCECRPKKDRARQEKCDKPRR | – | binding result (Neuropilin-1 (NP-1) [5]): no binding; binding result [6]: no binding; IC50 (VEGFR-2 [9]): 0.312 nM
25 | CAGRGARCREKQRPSDKPRR (disulfide 1-8) [P6V8-3NCS1-7CCA1A5] | no binding | –
